The record followed here is patent publication US11814447B2, “Peptide ligands for binding to EphA2” (BICYCLERD LIMITED, priority 2018, dated 2023).

In general, Ki refers to a dissociation constant, usually derived from enzyme kinetics or from competition with a known ligand. Higher therefore signals lower affinity.

B1: Bicycle Compound Number 69 (TATA scaffold), Ac-A(HArg)DCPLVNPLCLHPGWTCA-Sar6-(D-K) (peptide)
peptide: AXDCPLVNPLCLHPGWTCAXXXXXXK
modifications: N-terminal acetyl; X2 = HArg (homoarginine); X at 20-25 = Sar; K26 = D-Lys; 3 Cys thioether-linked to TATA scaffold

Starred links: 1 amine or outer side, 2 acyl side, 3 side chain; linkers in the order of their positions; H or OH if unused. Positions of bridges follow the written chain, without caps; N, C: chain ends. Non-standard residues stand in square brackets, D forms with d. Primed or numbered codes have the meaning given here. No end group written: not given here. TBMB′ = 1,3,5-tris(bromomethyl)benzene, 1,3,5-tris(methylene)benzene core, three thioethers to Cys; TATA = O=C(CC[*:1])N1CN(C(=O)CC[*:2])CN(C(=O)CC[*:3])C1; Phe(3,4-Cl2) = N[C@@H](Cc1ccc(Cl)c(Cl)c1)C(=O)O; Bip = N[C@@H](Cc1ccc(-c2ccccc2)cc1)C(=O)O; Phe(4-Br) = N[C@@H](Cc1ccc(Br)cc1)C(=O)O; 1Nal = N[C@@H](Cc1cccc2ccccc12)C(=O)O; 2Nal = N[C@@H](Cc1ccc2ccccc2c1)C(=O)O; TBMB = c1c(C[*:1])cc(C[*:3])cc1C[*:2]; 3Pal = N[C@@H](Cc1cccnc1)C(=O)O; Phg = N[C@H](C(=O)O)c1ccccc1; Pip = O=C(O)[C@@H]1CCCCN1; Aze = O=C(O)[C@@H]1CCN1; Aib = CC(C)(N)C(=O)O; Sar = CNCC(=O)O

For the first experiment, the target named is T1, Human EphA2 (Ecto) (Human, UniProt P29317 24-537).
T1 construct: extracellular domain; in-house)
T1 sequence (P29317 24-537): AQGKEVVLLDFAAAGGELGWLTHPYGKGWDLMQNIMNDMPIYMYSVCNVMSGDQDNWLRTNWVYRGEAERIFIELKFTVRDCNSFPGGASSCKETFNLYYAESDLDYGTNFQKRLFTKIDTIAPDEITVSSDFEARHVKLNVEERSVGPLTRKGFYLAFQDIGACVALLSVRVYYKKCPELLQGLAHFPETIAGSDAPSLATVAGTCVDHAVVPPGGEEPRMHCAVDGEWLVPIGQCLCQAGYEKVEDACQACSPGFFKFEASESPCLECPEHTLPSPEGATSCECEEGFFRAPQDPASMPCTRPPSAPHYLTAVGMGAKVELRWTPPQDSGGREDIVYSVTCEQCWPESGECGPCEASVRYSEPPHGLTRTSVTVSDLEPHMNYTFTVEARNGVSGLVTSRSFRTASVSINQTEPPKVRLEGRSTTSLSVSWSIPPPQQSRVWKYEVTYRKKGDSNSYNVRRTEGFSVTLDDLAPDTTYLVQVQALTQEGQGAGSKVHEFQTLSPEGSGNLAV
Kind of experiment: FP competition; tracer Reference Compound C. Here is the method: (§1) Peptides without a fluorescent tag were tested in competition with a peptide with a fluorescent tag and a known Kd (Table 2). Peptides were diluted to an appropriate concentration in assay buffer as described in the direct binding assay with a maximum of 5% DMSO, then serially diluted 1 in 2. […] Measurements were conducted as for the direct binding assay, however the gain was determined prior to the first measurement. Data analysis was in Systat Sigmaplot version 12.0 where the mP values were fit to a user defined cubic equation to generate a Ki value: […]
In turn, ACPLVNPLCLMTGWSCA (linker 2-9-16 via TATA (inferred)) [Bicycle Compound Number 61 (TATA scaffold), ACPLVNPLCLMTGWSCA] came in with a Ki of 242 nM. This counts as sub-micromolar.
With ACPLVNPLCLTSGWKCA (linker 2-9-16 via TATA (inferred)) [Bicycle Compound Number 52 (TATA scaffold), ACPLVNPLCLTSGWKCA], the Ki stood at 115 nM.
Still for that read-out and setting: under ACPLVNPLCLHPG[2Nal]SCRGQ (linker 2-9-16 via TATA) [Bicycle Compound Number 93 (TATA scaffold), ACPLVNPLCLHPG(2Nal)SCRGQ] stands 228 nM.
Still for that read-out and setting: the figure for XXXXXXXXXXXACPLVNPLCLHPGWTCLHG (N-terminal (β-Ala)-Sar10; 3 Cys thioether-linked to TATA scaffold) [Bicycle Compound Number 75 (TATA scaffold), (β-Ala)-Sar10-ACPLVNPLCLHPGWTCLHG] is 2.48 nM; for ACPLVNPLCLEPGWTCAKR (linker 2-9-16 via TATA) [Bicycle Compound Number 85 (TATA scaffold), ACPLVNPLCLEPGWTCAKR] it is 10.9 nM.
RPACPLVNPLCLHPGWTCA (linker 4-11-18 via TATA) [Bicycle Compound Number 70 (TATA scaffold), RPACPLVNPLCLHPGWTCA] came in with a Ki of 10.1 nM.
Molecule RPPCPLVNPLCLHPGWTCA (linker 4-11-18 via TATA) [Bicycle Compound Number 71 (TATA scaffold), RPPCPLVNPLCLHPGWTCA] had a Ki of 11.1 nM.
The same measure, in the same setting: the figure for ACGFMGLVPCELYCADN (linker 2-10-14 via TATA (inferred)) [Bicycle Compound Number 51 (TATA scaffold), ACGFMGLVPCELYCADN] is 84.4 nM; for ACPLVNPLCLTPGWTCTNT (linker 2-9-16 via TATA) [Bicycle Compound Number 94 (TATA scaffold), ACPLVNPLCLTPGWTCTNT] it is 13.2 nM.
Still for that read-out and setting: under ACPLVNPLCLYGSWKCA (linker 2-9-16 via TATA (inferred)) [Bicycle Compound Number 63 (TATA scaffold), ACPLVNPLCLYGSWKCA] stands 59 nM.
On the same count and under the same terms, under ACPLVNPLCNLPGWTCA (linker 2-9-16 via TATA (inferred)) [Bicycle Compound Number 56 (TATA scaffold), ACPLVNPLCNLPGWTCA] stands 184 nM.
Ac-CPLVNPLCLHPGWSCRGQ (linker 1-8-15 via TATA) [Bicycle Compound Number 88 (TATA scaffold), Ac-CPLVNPLCLHPGWSCRGQ] displayed a Ki of 1.64 nM. Compared with the last molecule, the Ki is about 110-fold lower.
The same measure, in the same setting: under ACGFMGLEPCELFCMPK (linker 2-10-14 via TATA (inferred)) [Bicycle Compound Number 47 (TATA scaffold), ACGFMGLEPCELFCMPK] stands 185 nM; under ACPLVNPLCLLDGWTCA (linker 2-9-16 via TATA (inferred)) [Bicycle Compound Number 58 (TATA scaffold), ACPLVNPLCLLDGWTCA], 38.4 nM; under Ac-CPLVNPLCLHPGWTCLHG (linker 1-8-15 via TATA) [Bicycle Compound Number 74 (TATA scaffold), Ac-CPLVNPLCLHPGWTCLHG], 1.76 nM.
Still for that read-out and setting: under ACGFMGLVPCEVHCA (linker 2-10-14 via TATA) [Bicycle Compound Number 41 (TATA scaffold), ACGFMGLVPCEVHCA] stands 155 nM.
Same read-out and setting: under ACPLVNPLCLHPGWTCA (linker 2-9-16 via TATA (inferred)) [Bicycle Compound Number 64 (TATA scaffold), ACPLVNPLCLHPGWTCA] stands 30 nM.
ACPLVNPLCLHPGWRCA (linker 2-9-16 via TATA (inferred)) [Bicycle Compound Number 55 (TATA scaffold), ACPLVNPLCLHPGWRCA] gave an inhibition constant (Ki) of 20.6 nM.
Still for that read-out and setting: the figure for ACPLVNPLCLAPGWTCA (linker 2-9-16 via TATA) [Bicycle Compound Number 82 (TATA scaffold), ACPLVNPLCLAPGWTCA] is 46.2 nM.
Take ACPMVNPLCLHPGWICA (linker 2-9-16 via TATA (inferred)) [Bicycle Compound Number 53 (TATA scaffold), ACPMVNPLCLHPGWICA]: the inhibition constant (Ki) worked out at 15.4 nM.
On the same count and under the same terms, under ACPLVNPLCLVPGWSCA (linker 2-9-16 via TATA (inferred)) [Bicycle Compound Number 57 (TATA scaffold), ACPLVNPLCLVPGWSCA] stands 35.4 nM; under ACPLVNPLCLHPGWICA (linker 2-9-16 via TATA (inferred)) [Bicycle Compound Number 54 (TATA scaffold), ACPLVNPLCLHPGWICA], 15.2 nM.
On the same count and under the same terms, the figure for ACPLVNPLCLEPGWTCA (linker 2-9-16 via TATA) [Bicycle Compound Number 84 (TATA scaffold), ACPLVNPLCLEPGWTCA] is 53.9 nM.
Same read-out and setting: the figure for ACPMVNPLCLHPGWTCA (linker 2-9-16 via TATA) [Bicycle Compound Number 97 (TATA scaffold), ACPMVNPLCLHPGWTCA] is 20 nM.
With ACPLVNPLCLHPGWSCA (linker 2-9-16 via TATA) [Bicycle Compound Number 86 (TATA scaffold), ACPLVNPLCLHPGWSCA], affinity was put at a Ki of 56.1 nM.
The same measure, in the same setting: under B1 stands 17.5 nM.
Molecule ACGFMGLEPCELYCAHT (linker 2-10-14 via TATA (inferred)) [Bicycle Compound Number 49 (TATA scaffold), ACGFMGLEPCELYCAHT] yielded an inhibition constant (Ki) of 144 nM.
Still for that read-out and setting: the figure for ACGFMGLVPCNVFCA (linker 2-10-14 via TATA (inferred)) [Bicycle Compound Number 45 (TATA scaffold), ACGFMGLVPCNVFCA] is 142 nM; for ACPLVNPLCMMGGWKCA (linker 2-9-16 via TATA (inferred)) [Bicycle Compound Number 62 (TATA scaffold), ACPLVNPLCMMGGWKCA] it is 67.1 nM; for ACPLVNPLCLHPG[2Nal]TCLHG (linker 2-9-16 via TATA) [Bicycle Compound Number 79 (TATA scaffold), ACPLVNPLCLHPG(2Nal)TCLHG] it is 162 nM.
The same measure, in the same setting: under TPRCPLVNPLCLMPGWTCA (linker 4-11-18 via TATA) [Bicycle Compound Number 81 (TATA scaffold), TPRCPLVNPLCLMPGWTCA] stands 9.8 nM; under ACGFMGLEPCVTYCA (linker 2-10-14 via TATA) [Bicycle Compound Number 43 (TATA scaffold), ACGFMGLEPCVTYCA], 234 nM.
Still for that read-out and setting: the figure for ACPLVNPLCLMPGWGCA (linker 2-9-16 via TATA (inferred)) [Bicycle Compound Number 59 (TATA scaffold), ACPLVNPLCLMPGWGCA] is 114 nM; for ACPLVNPLCMIGNWTCA (linker 2-9-16 via TATA (inferred)) [Bicycle Compound Number 60 (TATA scaffold), ACPLVNPLCMIGNWTCA] it is 96.2 nM.

Another experiment deals with T2, Human EphA2 (Ecto), C-terminal polyHis (Human, UniProt P29317 24-537).
T2 construct: extracellular domain; also called EPH receptor A2; ephrin type-A receptor 2
T2 sequence (P29317 24-537): as the sequence (P29317 24-537) above
In words: fluorescence polarisation competition; competitor fluorescent Compound 66. Here is the method:
as §1
Molecule ACPWGPMWCPVNRPGCA (linker 2-9-16 via TBMB (inferred), also called Compound 46) [Bicycle Compound Number 46 (TBMB scaffold)] came in with a Ki of 95.8 nM.
On the same count and under the same terms, under [Sar][Sar]ACPWGP[2Nal]WCPVNRPGC (linker 4-11-18 via TBMB′, also called Compound 95) [Bicycle Compound Number 95 (TBMB scaffold)] stands 362 nM; under [Sar][Sar]ACPWGPFWC[Aze]VNRPGC (linker 4-11-18 via TBMB′, also called Compound 97) [Bicycle Compound Number 97 (TBMB scaffold)], 286 nM; under [Sar][Sar]ACPWGPYWCPVNRPGC (linker 4-11-18 via TBMB′, also called Compound 91) [Bicycle Compound Number 91 (TBMB scaffold)], 138 nM.
For [Sar][Sar]ACPWGPFWCPVARPGC (linker 4-11-18 via TBMB) [Bicycle Compound Number 101 (TBMB scaffold)], the Ki turned out to be 265 nM.
Take [Sar][Sar]ACPWGPFWCPVNR[dA]GC (linker 4-11-18 via TBMB) [Bicycle Compound Number 105 (TBMB scaffold)]: the affinity corresponds to a Ki of 471 nM.
Still for that read-out and setting: the figure for [Sar][Sar]ACPWGP[Phg]WCPVNRPGC (linker 4-11-18 via TBMB′, also called Compound 93) [Bicycle Compound Number 93 (TBMB scaffold)] is 412 nM; for [Sar][Sar]ACP[2Nal]GPFWCPVNRPGC (linker 4-11-18 via TBMB, also called Compound 77) [Bicycle Compound Number 77 (TBMB scaffold)] it is 458 nM.
The molecule [Sar][Sar]ACPWGP[3Pal]WCPVNRPGC (linker 4-11-18 via TBMB′, also called Compound 92) [Bicycle Compound Number 92 (TBMB scaffold)] returned an inhibitory constant (Ki) of 165 nM.
The same measure, in the same setting: the figure for [Sar][Sar]ACPWG[Pip]FWCPVNRPGC (linker 4-11-18 via TBMB′, also called Compound 82) [Bicycle Compound Number 82 (TBMB scaffold)] is 497 nM; for [Sar][Sar]ACPWGP[1Nal]WCPVNRPGC (linker 4-11-18 via TBMB′, also called Compound 94) [Bicycle Compound Number 94 (TBMB scaffold)] it is 196 nM.
The molecule [Sar][Sar]ACPWGP[Bip]WCPVNRPGC (linker 4-11-18 via TBMB′, also called Compound 88) [Bicycle Compound Number 88 (TBMB scaffold)] registered a Ki of 183 nM.
Still for that read-out and setting: under [Sar][Sar]ACPWGP[Phe(3,4-Cl2)]WCPVNRPGC (linker 4-11-18 via TBMB′, also called Compound 90) [Bicycle Compound Number 90 (TBMB scaffold)] stands 361 nM; under [Sar][Sar]ACPWGP[Phe(4-Br)]WCPVNRPGC (linker 4-11-18 via TBMB′, also called Compound 85) [Bicycle Compound Number 85 (TBMB scaffold)], 174 nM; under [Sar][Sar]AC[Aib]WGPFWCPVNRPGC (linker 4-11-18 via TBMB, also called Compound 74) [Bicycle Compound Number 74 (TBMB scaffold)], 139 nM.
